Source: patent US20210403579A1 (DELINIA, published 2021)
Substitutions are numbered along the chain they refer to.

Experiments:
Mouse ST2 = molecular target: T1, Mouse ST2 (mouse, UniProt P14719 27-332, limits assumed); experiment: SPR (Carterra), antibody immobilized, ST2 analyte, 1:1
T1 construct: also called mouse ST2 protein
T1 sequence (looked up): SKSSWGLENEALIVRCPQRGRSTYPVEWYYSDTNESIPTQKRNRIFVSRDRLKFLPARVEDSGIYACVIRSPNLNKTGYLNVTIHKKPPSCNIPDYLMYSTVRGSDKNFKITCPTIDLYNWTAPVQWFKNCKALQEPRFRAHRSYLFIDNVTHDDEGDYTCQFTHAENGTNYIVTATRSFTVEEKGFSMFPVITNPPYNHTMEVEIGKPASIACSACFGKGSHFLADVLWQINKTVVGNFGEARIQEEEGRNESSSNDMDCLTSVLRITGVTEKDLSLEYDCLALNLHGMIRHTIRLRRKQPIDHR
Procedure: (§1) Binding of the reformatted human ST2 antibodies to the human and mouse ST2 proteins was evaluated by surface plasmon resonance (SPR), using a high throughput antibody screening and characterization platform from Carterra (Salt Lake City, Utah).

Human ST2 = molecular target: T2, Human ST2 (human, UniProt Q01638 19-328, limits assumed); experiment: SPR (Carterra), antibody immobilized, ST2 analyte
T2 construct: also called human ST2 protein; Interleukin 1 receptor-like 1
T2 sequence (looked up): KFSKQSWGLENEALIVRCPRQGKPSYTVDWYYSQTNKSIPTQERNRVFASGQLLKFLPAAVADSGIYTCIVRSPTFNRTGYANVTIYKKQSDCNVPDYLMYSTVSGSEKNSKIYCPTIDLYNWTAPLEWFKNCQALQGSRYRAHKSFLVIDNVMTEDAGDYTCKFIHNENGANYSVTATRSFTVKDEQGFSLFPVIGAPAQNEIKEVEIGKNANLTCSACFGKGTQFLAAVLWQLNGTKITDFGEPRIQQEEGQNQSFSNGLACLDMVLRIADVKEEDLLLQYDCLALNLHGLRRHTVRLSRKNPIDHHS
Procedure: as §1

B1: Human ST2 IgG1 Antibody 52 (antibody, V domains shown)
VH: QVQLVQSGAEVKKPGSSVKVSCKASGGTFSNYAISWVRQAPGQGLEWMGWISAYNGNTNYAQKFQGRVTITADESTSTAYMELSSLRSEDTAVYYCARLSTVTTRPYYYYGMDVWGQGTTVTVSS
VL: DIVMTQSPLSLPVTPGEPASISCRSSQSLLHSNGYNYLDWYLQKPGQSPQLLIYAASSLQGGVPDRFSGSGSGTDFTLKISRVEAEDVGVYYCMQGTHWPTFGQGTKVEIKR
notes: IgG1, kappa; also called ST2 Antibody 52
In the case of B1, the Kd (Mouse ST2) is reported as 2700 nM, the koff (Mouse ST2) is reported as 0.16 s⁻¹ and the kon (Mouse ST2) is reported as 59000 M⁻¹ s⁻¹.

B2: Human ST2 IgG1 Antibody 25 (antibody, V domains shown)
VH: QVQLVQSGAEVKKPGSSVKVSCKASGGTFSNYAISWVRQAPGQGLEWMGWISAYNGNTNYAQKFQGRVTMTRDTSTSTVYMELSSLRSEDTAVYYCARSTNALDYWGQGTLVTVSS
VL: DIQMTQSPSSLSASVGDRVTITCRASQGIRSNLDWYQQKPGKAPKLLISIVSNLGSGVPSRFSGSGSGTDFTLTISSLQPEDFATYYCLQHNSNPPTFGGGTKVEIKR
notes: IgG1, kappa; also called ST2 Antibody 25
For B2, the Kd (Mouse ST2) was 322 nM, the koff (Mouse ST2) was 0.064 s⁻¹ and the kon (Mouse ST2) was 200000 M⁻¹ s⁻¹.

B3: Human ST2 IgG1 Antibody 30 (antibody, V domains shown)
VH: QVQLVQSGAEVKKPGSSVKVSCKASGYTFTTYGITWVRQAPGQGLEWMGGIIPIFGTANYAQKFQGRVTITADESTSTAYMELSSLRSEDTAVYYCAKLSGSSGSWDYYYYYGMDVWGQGTLVTVSS
VL: DIVMTQSPLSLPVTPGEPASISCRSSQSLLHSNGYNYLDWYLQKPGQSPQLLIYAASNLQSGVPDRFSGSGSGTDFTLKISRVEAEDVGVYYCMQALQTPITFGQSTRLEIKR
notes: IgG1, kappa; also called ST2 Antibody 30
For B3, the Kd (Mouse ST2) was 2700 nM, the koff (Mouse ST2) was 0.13 s⁻¹ and the kon (Mouse ST2) was 48000 M⁻¹ s⁻¹.

B4: Human ST2 IgG1 Antibody 100 (antibody, V domains shown)
VH: EVQLLESGGGLVQPGGSLRLSCAASGFTFSNYAMAWVRQAPGKGLEWVSWISGSGSYIYYADSVKGRFTISRDNSKNTLYLQMNSLRAEDTAVYYCARRGSSWSNFDYWGQGTLVTVSS
VL: DIQMTQSPSSLSASVGDRVTITCRASQTISTYLNWYQQKPGKAPKLLIYDASNLETGVPSRFSGSGSGTDFTLTISSLQPEDFATYYCQQSYSTPITFGQGTKVEIKR
notes: IgG1; also called ST2 Antibody 100
For B4, the Kd (Human ST2) was 342 nM, the koff (Human ST2) was 0.074 s⁻¹ and the kon (Human ST2) was 220000 M⁻¹ s⁻¹.

B5: Human ST2 IgG1 Antibody 20 (antibody, V domains shown)
VH: EVQLLESGAEVKKPGSSVKVSCKASGGTFSSYAISWVRQAPGQGLEWMGGIIPIFGTANYAQKFQGRVTITADESTSTAYMELSSLRSEDTAVYYCASGFYSNDLYYYYYMDVWGKGTTVTVSS
VL: B4 VL with T28S, T31S, Y32W, N34A, E55K, S91T, S93A, T94I, I96L, Q100G
notes: IgG1, kappa; also called ST2 Antibody 20
For B5, the Kd (Mouse ST2) was 2200 nM, the koff (Mouse ST2) was 0.17 s⁻¹ and the kon (Mouse ST2) was 77000 M⁻¹ s⁻¹.

B6: Human ST2 IgG1 Antibody 44 (antibody, V domains shown)
VH: EVQLLESGGGLVKPGGSLRLSCAASGFTFSSYWMSWVRQAPGKGLEWVSAISGTAINTYYADSVKGRFTISRDDSKNTLYLQMNSLKTEDTAVYYCARVRRDSSGGGAFDIWGQGTMVTVSS
VL: B4 VL with T28G, T31N, Y32N, D50A, N53S, E55Q, I96P
notes: IgG1, kappa; also called ST2 Antibody 44
B6 showed a Kd (Mouse ST2) of 999 nM, a koff (Mouse ST2) of 0.11 s⁻¹ and a kon (Mouse ST2) of 110000 M⁻¹ s⁻¹.

B7: Human ST2 IgG1 Antibody 9 (antibody, V domains shown)
VH: EVQLLESGGGLVQPGGSLRLSCAASGFAFSSHWMHWVRQAPGKGLEWVATISSGSHSIHYADSVKGRFTISRDNSKNTLYLQMNSLRAEDTAVYYCAREAGTSYYYYGMDVWGKGTTVTVSS
VL: B4 VL with R24Q, T28D, S30R, T31N, D50K, N53S, T56S, I96P, Q100G
notes: IgG1, kappa; also called ST2 Antibody 9
Work on B7 yielded a Kd (Mouse ST2) of 351 nM, a koff (Mouse ST2) of 0.032 s⁻¹ and a kon (Mouse ST2) of 91000 M⁻¹ s⁻¹.

B8: Human ST2 IgG1 Antibody 38 (antibody, V domains shown)
VH: QVQLVQSGAEVKKPGSSVKVSCKASGGTFSSYAISWVRQAPGQGLEWMGTIIPMFGIADYAQKFQGRVTITADESTSTAYMELSSLRSEDTAVYYCARSSRSSSWYNWYFDLWGRGTLVTVSS
VL: EIVMTQSPATLSVSPGERATLSCRASQSISSSYLAWYQQKPGQAPRLLIYGASTRATGIPARFSGSGSGTEFTLTISSLQSEDFAVYYCQQYYTTPWTFGQGTKVEIKR
notes: IgG1, kappa; also called ST2 Antibody 38
With B8 the Kd (Mouse ST2) was 529 nM, the koff (Mouse ST2) was 0.09 s⁻¹ and the kon (Mouse ST2) was 170000 M⁻¹ s⁻¹.

B9: Human ST2 IgG1 Antibody 45 (antibody, V domains shown)
VH: QVQLVQSGAEVKKPGSSVKVSCKASGGTFSSYAISWVRQAPGQGLEWMGGIVPIFETANYAQKFQGRVTITADESTSTAYMELSSLRSEDTAVYYCARDTPNFDYWGQGTLVTVSS
VL: not shown
notes: IgG1, kappa; also called ST2 Antibody 45
B9 showed a Kd (Mouse ST2) of 1400 nM, a koff (Mouse ST2) of 0.13 s⁻¹ and a kon (Mouse ST2) of 95000 M⁻¹ s⁻¹.

B10: Human ST2 IgG1 Antibody 39 (antibody, V domains shown)
VH: QVQLVQSGAEVKKPGSSVKVSCKASGYTFTSYYMQWVRQAPGQGLEWMGGIIPIFGTANYAQKFQGRVTITADESTSTAYMELSSLRSEDTAVYYCARARFGAVDYWGQGTLVTVSS
VL: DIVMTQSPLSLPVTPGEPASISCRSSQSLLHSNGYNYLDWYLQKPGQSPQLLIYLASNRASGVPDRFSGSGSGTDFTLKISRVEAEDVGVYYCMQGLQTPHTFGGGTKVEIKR
notes: IgG1, kappa; also called ST2 Antibody 39
Work on B10 yielded a Kd (Mouse ST2) of 3400 nM, a koff (Mouse ST2) of 0.14 s⁻¹ and a kon (Mouse ST2) of 42000 M⁻¹ s⁻¹.

B11: Human ST2 IgG1 Antibody 35 (antibody, V domains shown)
VH: QVQLVQSGAEVKKPGASVKVSCKASAYTFTSYGISWLRQAPGQGLEWMGWINPNSGNTGYAHKFQGRVTMTRDTSTSTVYMELSSLRSEDTAVYYCARGGSGWPTWGQGTLVTVSS
VL: DIQMTQSPSSLSASVGDRVTITCQASQDISNYLNWYQQKPGKAPKLLIYGASSLQSGVPSRFSGSGSGTDFTLTISSLQPEDFATYYCQQANTFPFTFGPGTKVDIKR
notes: IgG1, kappa; also called ST2 Antibody 35
In the case of B11, the Kd (Mouse ST2) is reported as 107 nM, the koff (Mouse ST2) is reported as 0.018 s⁻¹ and the kon (Mouse ST2) is reported as 170000 M⁻¹ s⁻¹.

B12: Human ST2 IgG1 Antibody 99 (antibody, V domains shown)
VH: EVQLLESGGGLVQPGGSLRLSCAASGFTFSDYYMNWVRQAPGKGLEWVSTISGFGESTFYADSVKGRFTISRDNSKNTLYLQMNSLRAEDTAVYYCARLGAARAFDIWGQGTTVTVSS
VL: DIQMTQSPSSLSASVGDRVTITCRASQSIGSWMAWYQQKPGKAPKLLIYAASTLQSGVPSRFSGSGSGTDFTLTISSLQPEDFATYYCQQSYTTPITFGPGTKVDIKR
notes: IgG1; also called ST2 Antibody 99
With B12 the Kd (Human ST2) was 192 nM, the koff (Human ST2) was 0.089 s⁻¹ and the kon (Human ST2) was 460000 M⁻¹ s⁻¹.

B13: Human ST2 IgG1 Antibody 34 (antibody, V domains shown)
VH: QVQLVQSGAEVKKPGASVKVSCKASGQTFTDYAINWVRQAPGQGLEWMGWMNPNSGNTGYAQKFQGRVTMTRDTSTSTVYMELSSLRSEDTAVYYCARETLEQQLPFDYWGQGTLVTVSS
VL: B12 VL with G30S, M33L, S91Y, T93S, P95L, I96Y, P100Q, D105E
notes: IgG1, kappa; also called ST2 Antibody 34
Binder B13 has a Kd (Mouse ST2) of 126 nM, a koff (Mouse ST2) of 0.0019 s⁻¹ and a kon (Mouse ST2) of 15000 M⁻¹ s⁻¹.

B14: Human ST2 IgG1 Antibody 19 (antibody, V domains shown)
VH: EVQLLESGGGLVQPGGSLRLSCAASGFSFSHAWMSWVRQAPGKGLEWVSVIHSGGSTFYADSVKGRFTISRDNSKNTLYLQMNSLRAEDTAVYYCARIGKGGGFDYWGQGTLVTVSS
VL: B12 VL with S28D, M33L, T53S, T93S, I96P, P100Q, D105E
notes: IgG1, kappa; also called ST2 Antibody 19
For B14, the Kd (Mouse ST2) was 311 nM, the koff (Mouse ST2) was 0.11 s⁻¹ and the kon (Mouse ST2) was 370000 M⁻¹ s⁻¹.

B15: Human ST2 IgG1 Antibody 49 (antibody, V domains shown)
VH: QVQLVQSGAEVKKPGASVKVSCKASGGTLSSYAISWVRQAPGQGLEWMGGISPYNGKANYAEKLQGRVTMTRDTSTSTVYMELSSLRSEDTAVYYCAIRSIAAREGVYYYYMDVWGKGTTVTVSS
VL: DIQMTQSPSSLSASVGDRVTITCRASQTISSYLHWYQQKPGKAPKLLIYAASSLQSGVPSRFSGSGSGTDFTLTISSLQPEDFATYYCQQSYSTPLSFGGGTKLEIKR
notes: IgG1, kappa; also called ST2 Antibody 49
B15 gave a Kd (Mouse ST2) of 436 nM, a koff (Mouse ST2) of 0.12 s⁻¹ and a kon (Mouse ST2) of 270000 M⁻¹ s⁻¹.

B16: Human ST2 IgG1 Antibody 21 (antibody, V domains shown)
VH: QVQLVQSGAEVKKPGASVKVSCKASGYTFSNHYMHWVRQAPGQGLEWMGWVNPTSGNTGYAQKFQGRVTMTRDTSTSTVYMELSSLRSEDTAVYYCARDLGVTYFDLWGRGTLVTVSS
VL: DIQMTQSPSSLSASVGDRVTITCRASQGISSWLAWYQQKPGKAPKLLIYEASHLETGVPSRFSGSGSGTDFTLTISSLQPEDFATYYCLQDYNYPLTFGGGTKVEIKR
notes: IgG1, kappa; also called ST2 Antibody 21
B16 was tested, and the Kd (Mouse ST2) was 999 nM, the koff (Mouse ST2) was 0.0085 s⁻¹ and the kon (Mouse ST2) was 8500 M⁻¹ s⁻¹.

B17: Human ST2 IgG1 Antibody 29 (antibody, V domains shown)
VH: QVQLVQSGAEVKKPGASVKVSCKASGGTFTGYFIHWVRQAPGQGLEWMGWMNPNSGNTGYAQKFQGRVTMTRDTSTSTVYMELSSLRSEDTAMYYCAREGQGVVPVDYWGQGTLVTVSS
VL: B16 VL with G28S, E50D, S52T, H53N, G100Q, G101S
notes: IgG1, kappa; also called ST2 Antibody 29
Binder B17 has a Kd (Mouse ST2) of 751 nM, a koff (Mouse ST2) of 0.0045 s⁻¹ and a kon (Mouse ST2) of 5900 M⁻¹ s⁻¹.

B18: Human ST2 IgG1 Antibody 16 (antibody, V domains shown)
VH: QVQLVQSGAEVKKPGASVKVSCKASGYTFTSHYMHWVRQAPGQGLEWMGIINPSGGSTSYAQKFQGRVTMTRDTSTSTVYMELSSLRSEDTAVYYCARAGIGYLAAHDLYYYYGMDVWGRGTLVTVSS
VL: EIVMTQSPATLSVSPGERATLSCRASQSVSSNFAWYQQKPGQAPRLLIYGASTRATGIPARFSGSGSGTEFTLTISSLQSEDFAVYYCQQYYSTPYTFGQGTKVEIKR
notes: IgG1, kappa; also called ST2 Antibody 16
B18 was tested, and the Kd (Mouse ST2) was 315 nM, the koff (Mouse ST2) was 0.1 s⁻¹ and the kon (Mouse ST2) was 320000 M⁻¹ s⁻¹.

B19: Human ST2 IgG1 Antibody 41 (antibody, V domains shown)
VH: QVQLVQSGAEVKKPGSSVKVSCKASGYTFTDYQMHWVRQAPGQGLEWVGVINPGGGSTTYAQTFQGRVTITADESTSTAYMELSSLRSEDTAVYYCARGGVEYSSSWDYYYYYGMDVWGQGTTVTVSS
VL: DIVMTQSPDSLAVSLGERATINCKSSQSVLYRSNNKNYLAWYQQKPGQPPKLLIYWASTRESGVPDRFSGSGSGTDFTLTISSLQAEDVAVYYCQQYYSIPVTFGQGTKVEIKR
notes: IgG1, kappa; also called ST2 Antibody 41
B19 was tested, and the Kd (Mouse ST2) was 845 nM, the koff (Mouse ST2) was 0.11 s⁻¹ and the kon (Mouse ST2) was 140000 M⁻¹ s⁻¹.
